Source: a protein production outcome set (Wang et al. 2014)

Assay: label from the status in PepcDB records

| Sequence | protein production |
| --- | --- |
| MPRWLPRAMVLALALIAAFQLGSWAFHQLTGLLINVLIAFFLALAIEPAVSWMAGRGMRRGFATFLVFLAVLIAAAGFVTLLGSMLAGQIVKMVEEFPDYLDSVINWVNGHFHTELRRVDIQEGLLRSDWLRNYVQNSATGVLDVSAQVLGGLFQLLTVLLFSFYFAADGPRLRRGLCSVLPPARQAEVLRAWEIAVDKTGGYLYSRGLMALVSGVAHYILLEILEVPYAPALAVWVGLVSQFIPTIGTYLAGALPMLIAFTVNPWYALWVLVFVVIYQQFENYVLQPKLTSKTVDIHPAVAFGSVIAGTALLGAVGALIAIPAVATLQAFLGAYVKRYDVTDDPRVHGRRGRRSVSGTSTRLRKLWTRRPEPGLEGPERTEGPERTEGGEGTDGTRDGGSS | failed |
| MPSAMNERTVAELEKLLRYIAANLKQRGREILTNYPITPPQFVALQWLLEEGDLTVGELSNKMYLACSTTTDLVDRMERNGLVARVRDEHDRRVVRIRLLEKGERIIEEVIEKRQRDLANVLESFSDEEIVVFERCLRKLHQEMTKE | not failed |
| MPSDSLRVGVLTGGGDCPGINAALRAVTKSLTLQHDAEVLGFLDGFRGVVDRNVEPLHYRDVSGILTRGGTILGASNKADPFNYLPRGGADVSAQVMRTYRTLDLDALVAIGGDGTMSIAHRLTDLGVDIVGVPKTIDNDLVGTDRTVGFDTAVSTATDAIDRIHTTAQSHHRVMIVETMGRYSGWIALHAGVASGTDVILLPEIEYEVETVADVCRDRERSGQRFTIVAVAEGARRKEGDYVVQERGDEYTDSIRLGGISRVLADQLREHLDTSIRTTVLGHMQRGGSPTAYDRTLATTLGTRAATLVAEGTTGVMVAVQNDAFTQVPLDEIAGKTRTVPLDDPLIASGLDVGTSFGVAVSDLSEAASHSKPASPIQP | failed |
| MPSEKQPQSKGNKMAILKLDEHLYISPQLTKADAEQIAQLGIKTIICNRPDREEESQPDFAQIKQWLEQAGVTGFHHQPVTARDIQKHDVETFRQLIGQAEYPVLAYCRTGTRCSLLWGFRRAAEGMPVDEIIRRAQAAGVNLENFRERLDNARV | not failed |
| MPSFRITRKVRHSATQMYDLVADIERYPEFLPLCESLRVLRDAEGPNGTTVRVAEMGVGYKAIRERFTTRVSLDRENRKIVAEYIDGPFRHLENRWSFRDAEGGGCEVDFFITYEFKSRTLGLLMGTMFDRAFRKFTDAFEGRATAIYGVPA | failed |
| MPSGLEQCAPRCRALLQGESGVQIQGHYELKFEAVREAFAALFEDSQERGAALCIQVGGETVIDLWAGTADKDGAEAWHSDTIANLFSCTKTFTAVTALQLVAEGKLKLDAPVADYWPEFAAAGKAAITLRQLLCHQAGLPAVRELLPAQALYEWQTMVDALAAEQPWWTPGEGHGYAAITYGWLVGELIRRADGRGPGESIVARVARPLGLDFHVGLADEEFYRVAHIARGKGNMGDAAAQRLLQVTMREPDAMSTRAFTNPPSILTSTNKPEWRRMQQPAANGHGNARSLAGFYSGLLDGSLLEADMLEELTREHSLGMDKTLLTQTRFGLGCMLDQPQVANATFGLGARAFGHPGAGGSIGFADPEHDVAFGFVTNTLGPYVLMDPRAQKLVRVLSDCLLEHHHHHH | failed |
| MPSIIDETVFGEPSRRLAVVYLCGALLLAGQQGYYVIIEGATPFYAGLLLSAGMALSGIAESLPKPRRRAAGVLRLTALVVLVSLLVILFVTPDLLTN | failed |
| MPSIISDNPKNWSEEIKNYLCRSSPERYEKMATNNAIEPYISKAISWGYAEWKNRKTLLDDIETEMLRLATLPDLSDFNDNEIYSSKKNYLSKEILENYLIKASPENFNTVFRQPGWKSHVNFLIEKGNRELERQIINGNGVENSVDTVCAELAKLMNDFENSFFDEIYGNSTPRYLLPNLFEKAIAEYKLLATIKERTRFIEAFIEIVMFDWQFSGTLDSDLFKNAYSKEVLYYYGIGARLFVLGEFKEAQEYFKKIINIEPKPIDYLMLSKTYRALNEKVETFNTIKDGLTHFPNDFLLTLALSGTLYWMGETKLANETLEPVKKDFNTMYKSEIEGAKKLAVEISEAIKCDKIYRDQKNDIYDDKYTKKAWYQYWYHYNCFRPTQHPEAYMIDYIPRYLTSIAKDATITLKGVLDFGTLCAEPLYRFAKNNPEIQCVGIDRQDLVKELNDKAYSLNNLRFEAGDIFEYLEHFALLVPNHRMLFHCRTAVLCYPNFLLKLYKKCAELGIEYICLMESNSLSRDTLTFYNYGEMPNISIARRGSLINHDYFLLLEQSGYEIVKKDFHLAPHLLEDYAALIGSNTTLVAQLKLLTQSQ | failed |
| MPSLFSLYRKIFFGRKPGWDQQPLPYIKVTAPNVRVSEAKISQYAQVCGFDFDGKLLPPTYLYVMAFRLHAVIFTHDGITFPLLGMIHLKNRIQVYRPAAVDEVFALECALTTSRETDSGLEFEFVSKAFVGEELVWESLSTYLYRIETAGRRVRPPKALDMAWDSPQSWELGEDLGRRYAKASGDYNLIHLHPMLSKRFGFDRVLAHGMWSKARCLAELMPEIGERPFVVDVAFKLPLLMPAEVGFGYEKTEDKWVFELRDSKGRRPHLSGEVQL | failed |
| MPSPVEADAKVTMRLRYTKTGAMRYLSHLEMIGLFTRAVGRARLPIRFSQGFHPHPKFSFATALSVGVESWAEYLDMELIPSLTPGEVRDRLNAALPEGMRIVEAVVIPPGTPSLSVLMDKVRYRIILLEEAARDLAARAEAFLARDSFPLRRAKKGRIQEYDLEHHHHHH | failed |
| MPSQDYLRVLNPSLSGPTPIAFIILALISAGLLIIIWRNRDLISTDNLRGKIIFIVISAALIFTFGRISFALSEVLIFLWALSILWIRGNTDNIEMNLAMAAWVLAYLYMHSFHPVKADRYIITVLPALAYAISLSLNNLSALMRSRRASTVLSIAVTLLMVSSAIHYTAGWPQEYGIVKGERSGAWLMNHDPSYRDRVIAADRGPAFTWYLGDYVFTRIIHPQRRELSLKYFYEVNPDYYIFWTGKTELPEGYRVIYSRDGVPLPGRFSRYAGILPLRYRIQWMLR | failed |
| MPSRRRFVLALAAALPAAGLLSACGFHLRGNNDFAFKRLYINLPQNSQMRAQLRRLIDNGSDTVVVSDKQDADAFLDVLSENRVKTISSLTPQGVVREYRITYRFSFQLRDAHDNLLIPPSEITLFRDLSYNETQVLAKDYEEAALYRDMQGDIVNQLVRRLASVRLPSLEHHHHHH | failed |
| MPTALGYVSIGLACGIIGAPYVTPVEMGLMSLFVYAGSAQFAMLALIVVQAPVAAIAMTVFLINLRLFLLSLHASTYFRHTSLWYNIGMSSILTDETYGVLMGELAHTDKVNPMWMHGNNLNSYVAWFVGTVVGTALGGLLPNPEIFGLDFALVGMFIGIFASQFQIMQRRIPVRNLLIILAVVAVSFFLLLTVMSQSLAVLFATLLGCSMGVVLDGQ | failed |
| MPTFLLVNDDGYFSPGINALREALKSLGRVVVVAPDRNLSGVGHSLTFTEPLKMRKIDTDFYTVIDGTPADCVHLGYRVILEEKKPDLVLSGINEGPNLGEDITYSGTVSGAMEGRILGIPSIAFSAFGRENIMFEEIAKVCVDIVKKVLNEGIPEDTYLNVNIPNLRYEEIKGIKVTRQGKRAYKERVFKYIDPYGKPFYWIAAEEFGWHAEEGTDYWAVLNGYVSVTPLHLDLTNYKVMKSIKYLEDSP | not failed |
| MPTIRINKLTDPVVFLHILFFLIIASSSLTYWKMSDYAVNQSWDAYFYKYSDYLDLVPTWEKILKDAFSLVLLLASIYFPRRKILDFSPNINLQRYYLSFILLFFLSLSNLFASRDVTNLTLFTIVAVIRPFLITASLLFFCHKHLNFFYFRIILECVNIIGIIQVYHSFLQRNSAIINNGLDWLHSGSARSVGTFADPNTLGRFLALLIMVNLFMLPPNIIRFFLIISYGIALFFTGSRASLLIIGIFILLFVAIKLSRQSIASTRAKNLTFAFLLTVPLLQFLLLRINLISNRADDTASPLQDGRYHILFNLINRLNPYEFIFGNYLGYGSNALILTGYDGSNFLSDSTPASLIGQFGITGLLLFILIVINLFKQTPRHININNSQDYLVLTGDLLQSRNALSFYLIISCFTTIIFESYAVIPILLGLIFYDNLDLKNIKF | failed |
| MPTLIVLIGPTGVGKTELSLRLAENFHTSIVSADSRQLYAELKIGTAAPTPDQLKRVPHYLVGTLHLTDYYSAAQYEQEAMEILHQLFTEHEVVVLTGGSMMYVDAICKGIDDIPTVDAETRQVMLQKYEEEGLEQLCAELRLLDPDYYRIVDLKNPKRVIHALEICYMTGKTYTSFRTQQKKERPFRILKIGLTRDREELYDRINRRVDQMMEEGLLDEVRSVLSYRHLNSLNTVGYKELFKYLDGEWELPFAIEKIKQNSRIYSRKQMTWFKRDEEIRWFHPEQETEILEYLRLQNLTHLPSLDTFLEHHHHHH | not failed |
